Experimental data: paper PMC10945824 (Proceedings of the National Academy of Sciences of the …, 2024)
Read-outs that look alike come from different tables or passages of the source.

B1: human paraneoplastic antigen Ma2 (PNMA2), recombinant, wild type (natural protein, UniProt Q9UL42 1-364, looked up)
chain: MALALLEDWCRIMSVDEQKSLMVTGIPADFEEAEIQEVLQETLKSLGRYRLLGKIFRKQENANAVLLELLEDTDVSAIPSEVQGKGGVWKVIFKTPNQDTEFLERLNLFLEKEGQTVSGMFRALGQEGVSPATVPCISPELLAHLLGQAMAHAPQPLLPMRYRKLRVFSGSAVPAPEEESFEVWLEQATEIVKEWPVTEAEKKRWLAESLRGPALDLMHIVQADNPSISVEECLEAFKQVFGSLESRRTAQVRYLKTYQEEGEKVSAYVLRLETLLRRAVEKRAIPRRIADQVRLEQVMAGATLNQMLWCRLRELKDQGPPPSFLELMKVIREEEEEEASFENESIEEPEERDGYGRWNHEGDD
B2: HA-tagged human PNMA2 secreted by HEK293FT cells (natural protein, UniProt Q9UL42 1-364, looked up)
chain: B1 chain

Legend:
[1] = molecular target: the molecule itself; experiment: cryo-EM structure
[2] = molecular target: the molecule itself; experiment: negative-stain TEM
[3] = molecular target: the molecule itself; experiment: negative-stain TEM; remark: listed apart in the source

Row | Protein | stoichiometry N [1] | binding result [2] | binding result [3]
1 | B1 | 60 | binds | –
2 | B2 | – | – | binds
